Results: publication doi:10.1101/2020.06.27.175620 (bioRxiv, 2020)

B1: cytochrome b of CIII2 (natural protein, Rhodobacter capsulatus)
chain: MSGIPHDHYEPKTGIEKWLHDRLPIVGLVYDTIMIPTPKNLNWWWIWGIVLAFTLVLQIVTGIVLAMHYTPHVDLAFASVEHIMRDVNGGWAMRYIHANGASLFFLAVYIHIFRGLYYGSYKAPREITWIVGMVIYLLMMGTAFMGYVLPWGQMSFWGATVITGLFGAIPGIGPSIQAWLLGGPAVDNATLNRFFSLHYLLPFVIAALVAIHIWAFHTTGNNNPTGVEVRRTSKADAEKDTLPFWPYFVIKDLFALALVLLGFFAVVAYMPNYLGHPDNYVQANPLSTPAHIVPEWYFLPFYAILRAFAADVWVVILVDGLTFGIVDAKFFGVIAMFGAIAVMALAPWLDTSKVRSGAYRPKFRMWFWFLVLDFVVLTWVGAMPTEYPYDWISLIASTYWFAYFLVILPLLGATEKPEPIPASIEEDFNSHYGNPAE
B2: Rieske FeS protein of CIII2 (natural protein, Rhodobacter capsulatus)
chain: MSHAEDNAGTRRDFLYHATAATGVVVTGAAVWPLINQMNASADVKAMASIFVDVSAVEVGTQLTVKWRGKPVFIRRRDEKDIELARSVPLGALRDTSAENANKPGAEATDENRTLPAFDGTNTGEWLVMLGVCTHLGCVPMGDKSGDFGGWFCPCHGSHYDSAGRIRKGPAPRNLDIPVAAFVDETTIKLG

Key:
cryo-EM structure = target: the molecule itself; assay: cryo-EM structure
cytochrome b of CIII2 = target: B1; assay: cryo-EM structure

Binder: B1
- binding result (cryo-EM structure): binds

Binder: B2
- binding result (cytochrome b of CIII2): binds
